In the test the target is CXCL8 (human).

Drawing on paper PMC5910400, this text covers mean IC50 (three biological replicates) of inhibition of primary human granulocyte migration induced by the EC80 dose of CXCL8 for 2 substances.

Substance “P1156:G4S:P1243 two-warhead evasin (from UniProt V5HBW0;A0A0C9S461)” had a mean IC50 (three biological replicates) of inhibition of primary human granulocyte migration induced by the EC80 dose of CXCL8 of 7.5e-09 M.
The figure for “P1243:G4S:P1156 two-warhead evasin (from UniProt A0A0C9S461;V5HBW0)” is 3.8e-08 M.
